What was measured:
[1] = molecular target: MBP-tagged split mFAP fragment m12; assay: split reporter (BiFC, NanoBiT); protein-fragment complementation in vitro: complementary MBP-fused split mFAP fragments mixed at equimolar concentration with excess DFHBI-1T (1.00 uL of 1.25 mM in 25.0 uL); fluorescence endpoint ex 478 nm, em 520 nm; background without protein
[2] = molecular target: MBP-tagged split mFAP fragment m12; assay: other fluorescence titration; MBP-tagged fragment titrated into its complementary MBP-tagged fragment; 25.0 uM DFHBI-1T; high-salt Tev cleavage buffer (25.0 mM Tris, 100 mM NaCl, pH 8.00); ex 468 nm, em 530 nm; estimated Kd, signal did not plateau

B1: MBP-tagged split mFAP fragment m38 (domain or fragment)
chain: YTMDIVAQGTISDGRPIVGYGKATVKTPDTLDIDITYPSLGNIKAQGQITMDSPTQFKWDATTKGENDFHGRLTGTLQRQE
modifications: here or on the partner: strands 3-8; cut assumed in loop2 (34/35); MBP omitted / strands 1-2 of mFAP2a; cut assumed in loop2 (34/35, as in cp35-34); exact limits are in Supplementary Data 1, not shown; MBP omitted
fold mean fluorescence intensity over background [1]: 7.34 fold | fold mean fluorescence intensity over the combination m1 and m28 [1]: 184 fold | Kd [2]: > 281 µM

From article PMC7870846, “Incorporation of sensing modalities into de novo designed fluorescence-activating proteins” (Nature Communications, 2021)
